Source: paper PMC10786891, “Massively parallel profiling of RNA-targeting CRISPR-Cas13d”
Substitutions are numbered along the chain they refer to. In names and notes the source's numbering stands.

B1: target 1 G12C,A16G (mixed)
RNA 1: CACCCGUGCAAAAAUGCAGGGGUCUAAAACUGAGCGGAUAACCUCUCUAUGG
RNA 2: GGGAAUGGAUCCACAUCUACGAAUUCGUACCAUAGGGAGCUUAUCCGCUCACCGAGAUCGGAAGAGCACACGU
B2: target 1 U10A,A14G (mixed)
RNA 1: B1 RNA 1
RNA 2: B1 RNA 2 with G36A, A38G, C40G, U42A
B3: target 1 C4A,G15A (mixed)
RNA 1: B1 RNA 1
RNA 2: B1 RNA 2 with G36A, G37A, C40G, C48A
B4: target 1 insA 3' of 19,insC 3' of 13 (mixed)
RNA 1: B1 RNA 1
RNA 2: GGGAAUGGAUCCACAUCUACGAAUUCGUACCAUAAGAGAGCGUUAUCCGCUCACCGAGAUCGGAAGAGCACACGU
B5: target 1 insA 3' of 8,insG 3' of 2 (mixed)
RNA 1: B1 RNA 1
RNA 2: GGGAAUGGAUCCACAUCUACGAAUUCGUACCAUAGAGAGGUUAUACCGCUCGACCGAGAUCGGAAGAGCACACGU
B6: target 1 insA 3' of 12,insU 3' of 1 (mixed)
RNA 1: B1 RNA 1
RNA 2: B5 RNA 2 with U41A, A43U, U44A, A45U, G52A, A53U
B7: target 1 insA 3' of 15,insG 3' of 2 (mixed)
RNA 1: B1 RNA 1
RNA 2: B5 RNA 2 with G39A, U41G, A43U, U44A, A45U
B8: target 1 insU 3' of 22,insA 3' of 7 (mixed)
RNA 1: B1 RNA 1
RNA 2: GGGAAUGGAUCCACAUCUACGAAUUCGUACUCAUAGAGAGGUUAUCACGCUCACCGAGAUCGGAAGAGCACACGU
B9: target 1 insC 3' of 20,insC 3' of 16 (mixed)
RNA 1: B1 RNA 1
RNA 2: B4 RNA 2 with U33C, A34U, G38C, A39G, G40A, C41G
B10: target 1 insG 3' of 22,insC 3' of 9 (mixed)
RNA 1: B1 RNA 1
RNA 2: B8 RNA 2 with U31G, U45C, C46U, A47C
B11: target 1 insU 3' of 18,insA 3' of 13 (mixed)
RNA 1: B1 RNA 1
RNA 2: B4 RNA 2 with A35U, C41A
B12: target 1 A9U,U11G (mixed)
RNA 1: B1 RNA 1
RNA 2: B1 RNA 2 with G36A, C40G, U41G, A43U
B13: target 1 insA 3' of 11,insG 3' of 4 (mixed)
RNA 1: B1 RNA 1
RNA 2: B5 RNA 2 with U42A, A43U, U44A, A45U, U50G, C51U, G52C
B14: target 1 insG 3' of 21,insU 3' of 21 (mixed)
RNA 1: B1 RNA 1
RNA 2: B4 RNA 2 with A32G, A35U, G36A, A37G, G38A, A39G, G40A, C41G
B15: target 1 insG 3' of 7,insA 3' of 7 (mixed)
RNA 1: B1 RNA 1
RNA 2: B5 RNA 2 with A45C, C46G, C47A, G48C, C49G, U50C, C51U, G52C
B16: target 1 insU 3' of 17,insG 3' of 6 (mixed)
RNA 1: B1 RNA 1
RNA 2: B4 RNA 2 with A35G, G36U, C41G, G42U, U44A, A45U, U46C, C48G
B17: target 1 insC 3' of 5,insA 3' of 4 (mixed)
RNA 1: B1 RNA 1
RNA 2: B5 RNA 2 with A45C, C47G, G48C, U50A, C51U, G52C
B18: target 1 insA 3' of 6,insG 3' of 2 (mixed)
RNA 1: B1 RNA 1
RNA 2: B5 RNA 2 with A45C, C47A
B19: target 1 insA 3' of 17,insU 3' of 17 (mixed)
RNA 1: B1 RNA 1
RNA 2: B4 RNA 2 with A35G, G36A, A37U, G38A, A39G, G40A, C41G
B20: target 1 insA 3' of 11,insC 3' of 11 (mixed)
RNA 1: B1 RNA 1
RNA 2: B4 RNA 2 with A35G, G36A, A37G, G38A, A39G, C41U, G42A, U43C
B21: target 1 A1C,U11G (mixed)
RNA 1: B1 RNA 1
RNA 2: B1 RNA 2 with G36A, C40G, U41G, A51C
B22: target 1 insG 3' of 8,insG 3' of 4 (mixed)
RNA 1: B1 RNA 1
RNA 2: B5 RNA 2 with A45G, U50G, C51U, G52C
B23: target 1 G5A,U11A (mixed)
RNA 1: B1 RNA 1
RNA 2: B1 RNA 2 with G36A, C40G, U41A, G47A
B24: target 1 insC 3' of 20,insG 3' of 10 (mixed)
RNA 1: B1 RNA 1
RNA 2: B4 RNA 2 with U33C, A34U, C41G, G42U, U44G
B25: target 1 C2A,U3C (mixed)
RNA 1: B1 RNA 1
RNA 2: B1 RNA 2 with G36A, C40G, U49C, C50A
B26: target 1 insC 3' of 9 (mixed)
RNA 1: B1 RNA 1
RNA 2: GGGAAUGGAUCCACAUCUACGAAUUCGUACCAUAGAGAGGUUACUCCGCUCACCGAGAUCGGAAGAGCACACGU
B27: target 1 insU 3' of 22,insA 3' of 21 (mixed)
RNA 1: B1 RNA 1
RNA 2: GGGAAUGGAUCCACAUCUACGAAUUCGUACUCAAUAGAGAGGUUAUCCGCUCACCGAGAUCGGAAGAGCACACGU
B28: target 1 insC 3' of 14,insU 3' of 2 (mixed)
RNA 1: B1 RNA 1
RNA 2: B5 RNA 2 with G39C, U41G, A43U, U44A, A45U, G52U
B29: target 1 insA 3' of 11,insG 3' of 10 (mixed)
RNA 1: B1 RNA 1
RNA 2: B4 RNA 2 with A35G, G36A, A37G, G38A, A39G, C41U, G42A, U44G
B30: target 1 insU 3' of 14,insC 3' of 8 (mixed)
RNA 1: B1 RNA 1
RNA 2: GGGAAUGGAUCCACAUCUACGAAUUCGUACCAUAGAGAUGGUUAUCCCGCUCACCGAGAUCGGAAGAGCACACGU
B31: target 1 insA 3' of 19,insC 3' of 18 (mixed)
RNA 1: B1 RNA 1
RNA 2: B27 RNA 2 with U31C, C32A, A33U, U35A, A36C
B32: target 1 insG 3' of 4,insC 3' of 3 (mixed)
RNA 1: B1 RNA 1
RNA 2: B5 RNA 2 with A45C, C47G, G48C, C49G, G52C
B33: target 1 G5A,A9C (mixed)
RNA 1: B1 RNA 1
RNA 2: B1 RNA 2 with G36A, C40G, A43C, G47A
B34: target 1 complement block 2-5 (mixed)
RNA 1: B1 RNA 1
RNA 2: B1 RNA 2 with G36A, C40G, G47C, C48G, U49A, C50G

Target: T1, EsCas13d, nuclease-dead (Eubacterium siraeum, UniProt B0MS50, R295A;H300A;R849A;H854A)
T1 sequence: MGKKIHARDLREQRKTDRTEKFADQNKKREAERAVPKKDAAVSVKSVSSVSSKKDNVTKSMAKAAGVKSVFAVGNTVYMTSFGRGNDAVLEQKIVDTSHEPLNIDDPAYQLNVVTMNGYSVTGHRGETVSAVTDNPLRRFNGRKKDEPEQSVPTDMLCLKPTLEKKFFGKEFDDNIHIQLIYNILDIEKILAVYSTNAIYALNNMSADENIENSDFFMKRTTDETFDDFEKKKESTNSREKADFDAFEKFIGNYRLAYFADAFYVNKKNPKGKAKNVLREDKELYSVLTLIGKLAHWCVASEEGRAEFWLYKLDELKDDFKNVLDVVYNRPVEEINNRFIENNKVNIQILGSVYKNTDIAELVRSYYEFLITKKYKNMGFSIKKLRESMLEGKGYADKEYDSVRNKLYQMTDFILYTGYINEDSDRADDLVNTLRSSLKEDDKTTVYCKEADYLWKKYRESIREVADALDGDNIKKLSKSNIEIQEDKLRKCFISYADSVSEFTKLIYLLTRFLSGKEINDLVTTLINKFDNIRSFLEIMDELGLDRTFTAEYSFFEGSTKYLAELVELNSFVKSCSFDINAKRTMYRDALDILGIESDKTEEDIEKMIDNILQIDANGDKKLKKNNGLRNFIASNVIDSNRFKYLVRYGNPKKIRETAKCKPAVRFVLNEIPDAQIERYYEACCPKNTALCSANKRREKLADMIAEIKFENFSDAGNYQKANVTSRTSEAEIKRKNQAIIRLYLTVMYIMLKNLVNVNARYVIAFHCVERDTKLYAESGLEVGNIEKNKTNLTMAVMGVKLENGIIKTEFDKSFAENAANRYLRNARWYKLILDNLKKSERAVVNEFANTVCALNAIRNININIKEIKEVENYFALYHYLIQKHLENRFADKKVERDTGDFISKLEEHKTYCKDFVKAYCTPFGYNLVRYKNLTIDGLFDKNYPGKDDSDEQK
Experiment: crRNA (strand 1, pre-loaded); Mg2+; 40 mM Tris-HCl pH 7.5, 150 mM NaCl, 6 mM MgCl2, 1 mM DTT, 0.1% Tween-20, 0.2 mg/ml BSA; 25 C; 10 min per concentration, then washed
Settings: tags: His6-TwinStrep-SUMO cleaved; N-terminal SNAP kept (SNAP-Surface 488); label: 3' end held by stalled T7 RNA polymerase

Binder | Kd
B1 | 75 ± 10 nM
B2 | 12.3 ± 0.5 nM
B3 | 20.9 ± 1.8 nM
B4 | 35.3 ± 3.3 nM
B5 | 16.7 ± 0.8 nM
B6 | 37 ± 10 nM
B7 | 6.7 ± 0.6 nM
B8 | 21.9 ± 1.3 nM
B9 | 16 ± 3 nM
B10 | 26.3 ± 1.6 nM
B11 | 22.6 ± 2.4 nM
B12 | 10.1 ± 0.8 nM
B13 | 9.7 ± 0.5 nM
B14 | 17.1 ± 1.2 nM
B15 | 10.5 ± 0.7 nM
B16 | 29 ± 5 nM
B17 | 13.9 ± 1.6 nM

Binder | Kd
B18 | 27 ± 5 nM
B19 | 13.4 ± 1.2 nM
B20 | 12.3 ± 0.9 nM
B21 | 50 ± 17 nM
B22 | 7.1 ± 0.4 nM
B23 | 54 ± 10 nM
B24 | 13.4 ± 2 nM
B25 | 13 ± 1 nM
B26 | 10.8 ± 0.4 nM
B27 | 66 ± 6 nM
B28 | 59 ± 11 nM
B29 | 16.5 ± 0.7 nM
B30 | 90 ± 40 nM
B31 | 56 ± 5 nM
B32 | 13.4 ± 1.1 nM
B33 | 16.7 ± 1.2 nM
B34 | 10.6 ± 0.6 nM
